Experimental data reported in PMC10160951 (Proceedings of the National Academy of Sciences of the …, 2023).
Values belong to the molecule of their own block, whether it stands above or below them.

How the values were obtained:
[1] = molecular target: full-length SNAP-tagged NKG2D on HEK293 TRex cells (co-expressed with DAP10) (human) (UniProt P26718); assay: FRET or BRET
[2] = molecular target: T1, Alexa Fluor 647-labeled MICB ECD (24 to 297) (human, UniProt Q29980 24-297, AF647 label on Cys213); assay: FRET or BRET
T1 sequence: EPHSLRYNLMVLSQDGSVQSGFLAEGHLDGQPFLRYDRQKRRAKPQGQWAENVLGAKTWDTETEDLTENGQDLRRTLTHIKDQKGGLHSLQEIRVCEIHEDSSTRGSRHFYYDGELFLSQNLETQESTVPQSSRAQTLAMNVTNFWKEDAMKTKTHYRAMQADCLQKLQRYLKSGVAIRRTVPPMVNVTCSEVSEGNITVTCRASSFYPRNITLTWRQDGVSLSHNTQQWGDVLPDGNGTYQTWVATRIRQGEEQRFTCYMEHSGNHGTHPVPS

[3] = molecular target: T2, MICA ECD (24 to 297), not dye-labeled (human, UniProt Q29983 24-297); assay: SEC-MALS
T2 sequence: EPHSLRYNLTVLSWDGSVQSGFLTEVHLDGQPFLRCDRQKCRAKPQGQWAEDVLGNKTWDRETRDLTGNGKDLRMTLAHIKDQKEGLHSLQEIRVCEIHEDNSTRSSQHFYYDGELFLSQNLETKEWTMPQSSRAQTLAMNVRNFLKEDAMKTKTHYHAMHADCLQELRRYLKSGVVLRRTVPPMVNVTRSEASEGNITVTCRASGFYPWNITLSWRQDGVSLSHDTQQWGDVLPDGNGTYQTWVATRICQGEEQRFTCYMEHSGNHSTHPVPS

[4] = molecular target: T2, MICA ECD (24 to 297), not dye-labeled; assay: SPR

Kd [1]: 2.5 nM
Molecule: Alexa Fluor 647-labeled ULBP6 ECD (29 to 207) (from UniProt Q5VY80 29-207) (ligand)

Kd [2]: 700 nM
B1: full-length SNAP-tagged NKG2D on HEK293 TRex cells (co-expressed with DAP10) (receptor)
chain: MGWIRGRRSRHSWEMSEFHNYNLDLKKSDFSTRWQKQRCPVVKSKCRENASPFFFCCFIAVAMGIRFIIMVTIWSAVFLNSLFNQEVQIPLTESYCGPCPKNWICYKNNCYQFFDESKNWYESQASCMSQNASLLKVYSKEDQDLLKLVKSYHWMGLVHIPTNGSWQWEDGSILSPNLLTIIEMQKGDCALYASSFKGYIENCSTPNTYICMQRTV
modifications: terbium label on the SNAP-tag

binding result [3]: binds
B2: hNKG2D 90-216, S117E, I173S mutant (domain or fragment)
chain: MGPLTESYCGPCPKNWICYKNNCYQFFDEEKNWYESQASCMSQNASLLKVYSKEDQDLLKLVKSYHWMGLVHIPTNGSWQWEDGSSLSPNLLTIIEMQKGDCALYASSFKGYIENCSTPNTYICMQRTV

Kd [4]: 48 nM
B3: biotinylated and detagged NKG2D ECD (90 to 216) (domain or fragment)
chain: PLTESYCGPCPKNWICYKNNCYQFFDESKNWYESQASCMSQNASLLKVYSKEDQDLLKLVKSYHWMGLVHIPTNGSWQWEDGSILSPNLLTIIEMQKGDCALYASSFKGYIENCSTPNTYICMQRTV
modifications: biotin on the Avi tag
